Substrate in the series: CCCC(=O)Oc1ccc([N+](=O)[O-])cc1
The series is described as follows: purified protein. In kind it is biochemical, unidentified prokaryotic organism. As to conditions: 50 mM phosphate buffer pH 8.0, isopropanol as substrate solvent, temperature not stated.

B1: LCC^ICCG (unidentified prokaryotic organism; D238C/F243I/S283C/Y127G) (protein)
chain: QSNPYQRGPNPTRSALTADGPFSVATYTVSRLSVSGFGGGVIYYPTGTSLTFGGIAMSPGYTADASSLAWLGRRLASHGFVVLVINTNSRFDGPDSRASQLSAALNYLRTSSPSAVRARLDANRLAVAGHSMGGGGTLRIAEQNPSLKAAVPLTPWHTDKTFNTSVPVLIVGAEADTVAPVSQHAIPFYQNLPSTTPKVYVELCNASHIAPNSNNAAISVYTISWMKLWVDNDTRYRQFLCNVNDPALCDFRTNNRHCQ
notes: ICCG variant of LCC, synthetic gene in pET-29a, C-terminal His6-tag, E. coli BL21(DE3), Ni-NTA purified
On to B1, for which the Michaelis constant (Km) – broadly, the concentration of substrate that gives half-maximal velocity – is 126.3 µM; the kcat (as a rule, the number of substrate molecules converted per active site and unit of time at saturation) was 67.5 s⁻¹; the kcat/Km (usually the second-order rate constant that governs catalysis at low substrate concentration) stood at 534000 M⁻¹ s⁻¹.

B2: LCC^ICCG-ChBD (unidentified prokaryotic organism; D238C/F243I/S283C/Y127G) (protein)
chain: QSNPYQRGPNPTRSALTADGPFSVATYTVSRLSVSGFGGGVIYYPTGTSLTFGGIAMSPGYTADASSLAWLGRRLASHGFVVLVINTNSRFDGPDSRASQLSAALNYLRTSSPSAVRARLDANRLAVAGHSMGGGGTLRIAEQNPSLKAAVPLTPWHTDKTFNTSVPVLIVGAEADTVAPVSQHAIPFYQNLPSTTPKVYVELCNASHIAPNSNNAAISVYTISWMKLWVDNDTRYRQFLCNVNDPALCDFRTNNRHCQ
notes: C-terminal His6-tag; pET-29a, E. coli BL21(DE3), Ni-NTA purified; Chitinolyticbacter meiyuanensis SYBC-H1
Turning to B2, the Km was found to be 141.8 µM, the kcat is 68.4 s⁻¹ and the kcat/Km turned out to be 404000 M⁻¹ s⁻¹.

For the origin of these results see publication PMC8715031, “Fusion of Chitin-Binding Domain From Chitinolyticbacter meiyuanensis SYBC-H1 to the Leaf-Branch Compost Cutinase for Enhanced PET Hydrolysis” (Frontiers in Bioengineering and Biotechnology, 2021).
